From PMC11889585, “Characterization of the putative yeast mitochondrial triacylglycerol lipase Tgl2” (The Journal of Biological Chemistry, 2025)

Biological target: T1, N terminally FLAG-tagged Tgl2 (S. cerevisiae, UniProt P54857 1-326)
T1 construct: Tgl2, S. cerevisiae; FLAG tag inserted at the N terminus of the ORF of Tgl2; the printed primer puts Met-FLAG directly before the second codon (AAA) of Tgl2; also called FLAG-Tgl2; source: S. cerevisiae tgl2Δ cells, coexpressed with HA-Tgl2 from plasmid pYX122; in solubilised mitochondria; not shown: FLAG, N-terminal, kept
T1 sequence (looked up): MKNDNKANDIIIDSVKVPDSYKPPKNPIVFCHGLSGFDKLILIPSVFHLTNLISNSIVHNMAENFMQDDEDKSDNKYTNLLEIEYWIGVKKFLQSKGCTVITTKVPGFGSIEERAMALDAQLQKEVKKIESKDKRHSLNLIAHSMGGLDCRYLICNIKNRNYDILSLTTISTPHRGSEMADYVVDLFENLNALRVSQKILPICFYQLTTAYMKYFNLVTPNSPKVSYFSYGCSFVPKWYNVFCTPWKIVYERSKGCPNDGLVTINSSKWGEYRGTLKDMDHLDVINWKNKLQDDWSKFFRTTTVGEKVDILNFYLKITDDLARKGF
Assay: native gel or EMSA; antibody shift assay: digitonin-solubilised mitochondria with HA-Tgl2 and FLAG-Tgl2 incubated with 0, 0.5 or 1 μl anti-HA antibody on ice for 30 min, BN-PAGE, immunodecoration with anti-FLAG
Details: partners not purified

B1: N terminally hemagglutinin (HA) tagged Tgl2 (natural protein, S. cerevisiae, UniProt P54857 1-326, looked up)
chain: T1 sequence (looked up)
notes: Tgl2, putative mitochondrial triacylglycerol lipase of the intermembrane space, S. cerevisiae; also called HA-Tgl2; native-like HA-Tgl2; source: S. cerevisiae (tgl2Δ, yme1Δ and other deletion strains), overexpressed from plasmid pYX142; in whole cell lysate, crude or isolated mitochondria; not shown: HA, N-terminal, kept
- stoichiometry N: ≥ 2
